From patent US20210017289A1 (AbbVie / Abbott, published 2021)

Legend:
[1] = target: T1, mouse OX40 expressed on 293s cells (mouse, UniProt P47741 20-272); test: flow cytometry on 293s-muOX40 cells
T1 construct: also called murine OX40
T1 sequence: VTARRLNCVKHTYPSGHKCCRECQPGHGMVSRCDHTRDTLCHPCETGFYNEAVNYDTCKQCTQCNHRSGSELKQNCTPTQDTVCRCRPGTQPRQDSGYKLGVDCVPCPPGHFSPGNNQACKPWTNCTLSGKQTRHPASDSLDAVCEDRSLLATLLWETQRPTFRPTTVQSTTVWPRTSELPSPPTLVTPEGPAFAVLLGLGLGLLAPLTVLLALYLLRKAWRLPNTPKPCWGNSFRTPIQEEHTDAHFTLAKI
Experimental: After plating cells, 50 μL of Hu3738 or isotype control antibody at 2 μg/mL were added to corresponding wells in duplicate for each cell line and allowed to incubate on ice for 30 minutes. Following incubation, 200 μL of Dulbecco's Phosphate Buffered Saline (DPBS) was added into each well and plates were spun down at 1000 rpm for three minutes. Supernatants from each well were removed and 50 μL of Cy5-Donkey anti-Human IgG (Jackson ImmunoResearch) secondary antibody was added at a 1:250 dilution, which was then incubated for 30 minutes on ice in the dark. Following the incubation period, 200 μL of DPBS was added prior to spinning down the plate at 1000 rpm for three minutes. Supernatants were removed and each well was re-suspended with 100 μL of DPBS+1% Formaldehyde. Samples were analyzed on the dual laser FACSCalibur flow cytometer (Becton Dickinson).

[2] = target: T2, human OX40 expressed on cells (human, UniProt P43489 29-277); test: flow cytometry on CD3/CD28 bead activated human CD4+ T cells
T2 construct: also called cell-surface human OX40; Jurkat-NF-κB-huOX40
T2 sequence: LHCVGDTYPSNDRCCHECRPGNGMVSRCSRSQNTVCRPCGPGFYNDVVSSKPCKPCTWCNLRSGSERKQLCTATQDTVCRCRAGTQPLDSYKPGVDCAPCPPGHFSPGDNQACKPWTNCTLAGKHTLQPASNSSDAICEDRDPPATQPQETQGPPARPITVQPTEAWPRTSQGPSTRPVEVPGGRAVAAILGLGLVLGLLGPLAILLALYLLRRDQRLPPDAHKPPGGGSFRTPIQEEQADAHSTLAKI
Experimental: After 24 hours, the beads were removed with a magnet. Cells were counted and resuspended to 1.5×10⁶/mL. An aliquot of the cell suspension (100 μL) was used per stain. Test antibody was titrated in a 4-fold dilution series starting at 1 μg/mL. Cells were stained for 30 minutes and washed twice. A 1:250 dilution of (4 μg/mL) of Goat anti Human Fc specific-PE/well (Jackson ImmunoResearch) was added in 100 μL/well PBS containing 1% BSA. Cells were stained for an additional 30 minutes and washed twice, transferred to tubes and acquired using the BD LSR Fortessa flow cytometer, and analyzed using FACSDiva analysis software version 8.0.1.

[3] = target: T3, rhesus OX40 expressed on 293 NF-κB reporter cells (rhesus macaque (Macaca mulatta), UniProt P43489 29-277 (human entry)); test: flow cytometry on NF-κB reporter cells expressing rhesus OX40
T3 construct: also called cell-surface rhesus monkey OX40
T3 chain: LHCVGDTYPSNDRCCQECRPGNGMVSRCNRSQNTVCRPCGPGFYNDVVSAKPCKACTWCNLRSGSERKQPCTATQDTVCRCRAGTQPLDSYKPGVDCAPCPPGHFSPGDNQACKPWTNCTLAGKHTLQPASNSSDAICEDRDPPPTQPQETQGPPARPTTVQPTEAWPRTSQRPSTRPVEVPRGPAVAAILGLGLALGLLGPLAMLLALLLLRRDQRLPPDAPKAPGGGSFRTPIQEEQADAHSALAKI
Experimental: Rhesus macaque (Macaca mulatta) OX40 is identical to cynomolgus monkey (Macaca fascicularis) OX40 (SEQ ID NO:2) at the amino acid level. […] For the binding assay, cells were resuspended at 5 million cells per mL. 50 μL (250,000 cells)/well were transferred to each well of a 500 μL polypropylene 96-well plate (Nunc). A 2× stock of test anti-OX40 antibody or isotype control monoclonal antibody was prepared in a separate dilution plate at 666, 333, 111, 37.03, 12.34, 4.11, 0.457, 0.152, 0.0508, 0.0169, 0.00564 nM in culture media. The monoclonal antibodies (50 μL/well) were transferred into respective wells of the assay plate. Cells were incubated with the primary antibodies for 30 minutes at 4° C. and washed twice with 250 μL/well of PBS by centrifuging at 800 rpm for 3 minutes. Bound antibody was detected with Cy5-Donkey anti-human IgG (H+L) (Jackson ImmunoResearch) diluted to 2 μg/mL (50 μL/well) in PBS for 30 minutes at 4° C. Cells were washed once with 250 μL/well of PBS, resuspended in PBS containing 1% Formaldehyde and analyzed on a dual laser FACSCalibur (Becton Dickinson).

[4] = target: T2, human OX40 expressed on cells; test: flow cytometry on Jurkat NF-κB reporter cells expressing human OX40
Experimental: (§1) A Jurkat NF-κB reporter cell line expressing human OX40 protein was cultured in DMEM containing 10% FBS and penicillin/streptomycin (pen/strep). For the binding assay, each cell line was resuspended at 5 million cells per mL. 50 μL (250,000 cells)/well were transferred to each well of a 500 μL polypropylene 96-well plate (Nunc). A 2× stock of test anti-OX40 antibody or isotype control mAb was prepared in a separate dilution plate at 666, 333, 111, 37.03, 12.34, 4.11, 0.457, 0.152, 0.0508, 0.0169, 0.00564 nM in culture media. Each antibody (50 μL/well) was transferred into respective wells of the assay plate. Cells were incubated with the test anti-OX40 antibody or isotype control antibodies for 30 minutes at 4° C. and washed twice with 250 μL/well of PBS by centrifuging at 800 rpm for 3 minutes. Bound antibody was detected with Cy5-Donkey anti-human IgG (H+L) (Jackson ImmunoResearch) diluted to 2 μg/mL (50 μL/well) in PBS for 30 minutes at 4° C. Cells were washed once with 250 μL/well of PBS, resuspended in PBS containing 1% Formaldehyde and analyzed on a dual laser FACSCalibur (Becton Dickinson).

[5] = target: T2, human OX40 expressed on cells; test: as above; remark: listed apart in the source
Experimental: as §1

[6] = target: T2, human OX40 expressed on cells; test: competition by flow cytometry on Jurkat-NF-κB-huOX40 cells; competitor: ALEXA FLUOR 647-labeled Hu3738 at 2 µg/mL
Experimental: Analysis was performed by flow cytometry.

B1: Hu3738 (antibody, V domains shown)
VH: EVQLVESGGGLVQPGGSLRLSCAASGFTFSRYGMSWVRQAPGKGLELVATINSNGGRTYYPDSVKGRFTISRDNAKNSLYLQMNSLRAEDTAVYYCAREGITTAYAMDYWGQGTTVTVSS
VL: DIVMTQSPDSLAVSLGERATINCKASQSVDYDGDSYMHWYQQKPGQPPKLLIYAASILESGVPDRFSGSGSGTDFTLTISSLQAEDVAVYYCQQSNEDPRTFGGGTKVEIKR
notes: Humanized antibody; also called exemplary anti-OX40 antibody Hu3738; Hu3738 VH.1b / Hu3738 VL.1
With B1 the binding result [1] was “no binding (tested: 2 µg/mL)”, the EC50 [2] was 53 pM and the EC50 [3] was 2100 pM. The EC50 [4] was 0.075 µg/mL, the EC50 [5] was 500 pM and the “IC50 (read off the curve)” value [6] was roughly 1 µg/mL.
